Source: the supplement of paper PMC9170038

System: MS2 coat protein
Test: apparent KD of MS2 coat protein; designed switch direction (-1 OFF switch, 1 ON switch): -1; higher = weaker reporter binding
In short: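 Normalised cluster fluorescence was curve-fitted, and each design's median over clusters is its apparent KD. Before this, SNAP-549-labelled MS2 coat protein was titrated from 0.7 or 1.5 nM, doubling to 3 µM, over RNA switches transcribed on Illumina chips by stalled E. coli RNA polymerase. Titrations had no input, 200 uM small-molecule ligand, or an oligonucleotide input, and steps lasted 0.8–1.5 h (lowest) to 10–20 min (highest).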

[1] = Eterna round: R95, input ligand: FMN 200 uM
[2] = Eterna round: R95, input ligand: microRNA oligo, concentration not stated
[3] = Eterna round: R95, input ligand: none
[4] = input ligand: microRNA oligo, concentration not stated

Sequence	apparent KD of MS2 coat protein [1]	apparent KD of MS2 coat protein [2]	apparent KD of MS2 coat protein [3]	apparent KD of MS2 coat protein (input ligand: FMN 200 uM)	apparent KD of MS2 coat protein [4]	apparent KD of MS2 coat protein (input ligand: none)
AGUAACCGUCACGAAAGUGAUGGUUACACAAGCAAAUGUACAUGAGGAUCACCCAUGUCCUCAUUUGCUCGUCUUAU [Sensor 3 - 45] (puzzle: Sensor v3, turn-off variant 2)	17.2 nM	379 nM	18.3 nM			
AGCCAGCUAGGAUAUUGCAGUUGUAACAUGAGGAUCACCCAUGUGAUAGGUGUUUAGCUCCAAGAAGGAGCGCGGC [Eronsoti] (puzzle: Exclusion 5)	88.7 nM	27.1 nM	28 nM			
CAGGGCAUGCGAGGAUAUAGCAACAUGAGGAUCACCCAUGUAUAAGGGUGUCCAAGGCAUGCGCGCUAGAAGGCGCUGGUUCUC [Gemadi] (Eterna round: R96, puzzle: Exclusion NG 2)				343 nM	64.6 nM	116 nM
GCACGGAGUGUAGGAUAUUAGUGCGAUUAGCACUGAGAAGGACAUGAGGAUCACCCAUGUUCCUCAAUAACUCACCUUCCGUGC [Eli exng1 - 043] (Eterna round: R96, puzzle: Exclusion NG 1)				9.73 nM	10.6 nM	11.5 nM
GUCGCGUGGGUGUGGGAGGACAUGAGGAUCACCCAUGUGACUACCAAGCUUUUUGCUCCUCUUAGGUCCAUGGGAAG [Random] (Eterna round: R97, puzzle: Sensor, turn-off variant 1)				67 nM		109 nM
CGUGUGUCAGGAUAUACGUUGGGCCAGCAUGGCUAAAGACAGUAGAAGGGACAUGAGGAUCACCCAUGUGGAGU [Eternabot (L2) Solution 4] (Eterna round: R97, puzzle: Exclusion 4)				571 nM		78.9 nM
UAUAUAUAGUAAGGAUAUGUAUAUAGUUUAUAAACAGAAGGUACUGACAUGAGGAUCACCCAUGUUUUAGUGUGGGCAUGUAGA [JMF's solution 56] (Eterna round: R96, puzzle: Exclusion NG 1)					61.3 nM	
UUUGUUUUGCAAGGAUAUGUUUAAUUUUAGUUUCCUUACACAUGAGGAUCACCCAUGUUAUACUUACAGAAGGUGCGUAAUUUU [Excl-NG2-LRO02] (Eterna round: R96, puzzle: Exclusion NG 2)					104 nM	
UUUUAACAUGAGGAUCACCCAUGUGAGGAUAUCGUUUUUUUUUUUUUUUUUUUUUUUUCGAGAAGGCACAUUUU [My solution] (puzzle: Exclusion 1)	127 nM	84 nM	14 nM			
AGCUGUGGCCGAGGAUAUACACAUGAGGAUCACCCAUGUAGGCGCGGAUACGCGCUAAAAUAAAUGUAGAAGGCGGUCUCAGCA [Eli eng2 - 055] (Eterna round: R96, puzzle: Exclusion NG 2)				7.06 nM	5 nM	11.8 nM
GCGCGCGCAGGAUAUACAUGAGGAUCACCCAUGUAGGGCCCGGGUAUUCCCGGGCCCUGUAGAAGGGUGUGUGU [-40.4, -37.1 kcal, A 19%, 0-6] (Eterna round: R97, puzzle: Exclusion 3)				21.8 nM		113 nM
GGCCCUAAGGUCAGAUUCACAAGCUUUUUGCUCGUUUUAACAUGAGGAUCACCCAUGUCUAGUGGAUUUGAUCCUUA [Sensor v3, turn-off variant 2 (MOD of Indiso v.7)] (puzzle: Sensor v3, turn-off variant 2)	21.8 nM	20 nM	18.9 nM			
CAGAGCAGACGGAGAUCCAACAUGAGGAUCACCCAUGUCUCAAAAGCUUUUUGCUCGUCUUAUCCUCCUCUGUUCAC [Esquitian 3] (Eterna round: R97, puzzle: Sensor, turn-off variant 1)				26 nM		30.4 nM
GUACUCGGAUGACAGUCCGACAUGAGGAUCACCCAUGUUUCAUUAAGGUCGUUGCUCGUCAAACAUCACUCAACCAG [Eternabot (L1) Solution 35] (Eterna round: R97, puzzle: Sensor, turn-off variant 1)				43.2 nM		51.5 nM
ACAUGAGGAUCACCCAUGUUUGGCUGGUUCUCUCCGGCUGUCGAGGAUAUAGUCCGGUAUCCGCGCUAGAAGGUGAGGGCUGGC [Aenatbe mod 6] (Eterna round: R96, puzzle: Exclusion NG 3)				17 nM	12.3 nM	16.1 nM
AAACUCCUGACAACCAGGAACAUGAGGAUCACCCAUGUGGCGUGACUCAUACGGGCUUUUUGUUCGUUUUAUUCACG [Aleatxe] (puzzle: Sensor v3, turn-off variant 1)	41 nM	26.6 nM	51 nM			

Sequence	apparent KD of MS2 coat protein [1]	apparent KD of MS2 coat protein [2]	apparent KD of MS2 coat protein [3]	apparent KD of MS2 coat protein (input ligand: FMN 200 uM)	apparent KD of MS2 coat protein [4]	apparent KD of MS2 coat protein (input ligand: none)
AGAGUGUGAGGAUAUAUGGUGAAGGUGAAGAGAGAGGAGGAGUAGAAGGUACAUGAGGAUCACCCAUGUUUGGA [JR_Exclu4_Sub075] (puzzle: Exclusion 4)	32.1 nM	33 nM	40.8 nM			
AAUUAAGCAAGCAGAUCCCACAUGAGGAUCACCCAUGUGCUCGUCUUAUAAGGUACUGUGACGAUAGUCACGGUACC [Mat - Sensor, turn-off var - Eli Mod - D71] (Eterna round: R97, puzzle: Sensor, turn-off variant 1)				135 nM		140 nM
AGCUGGAGAGGAUAUACGUAGGAAAAAAAAGUCUGAUCACUACAUGAGGAUCACCCAUGUAGAAGGCUCUGGCA [Ex2 Design 162: Sub-opt 26] (Eterna round: R96, puzzle: Exclusion 2)				104 nM	16.5 nM	20.5 nM
AAAAUACAUGAGGAUCACCCAUGUAAGGAUAUACGCCUAGUACCGAUGGUACUACAAAGUAGAAGGUACAUGGC [Arma] (puzzle: Exclusion 1)	17.1 nM	12.3 nM	14.1 nM			
UUCCUCACUUCUUUGUCUCACAUGAGGAUCACCCAUGUAAUAUAGGAUAUGCUUAGUAUUUUUAUGCAGAAGGAUAUUAGUUUU [JR_ExcNG3_Sub085] (Eterna round: R96, puzzle: Exclusion NG 3)				169 nM	32.8 nM	39.8 nM
CUAGAUCUUCGGAUCUAGUACAUGAGGAUCACCCAUGUGACGAGUUACAUGUUUUACAAGCUUUUUGCUCGUCUUAU [Sensor v3 - Turn-off variant 1 - 13] (puzzle: Sensor v3, turn-off variant 1)	39.4 nM	90.7 nM	40.5 nM			
GGUCAGAUGGUAGGAUAUCCAUAUCGAGUGACCCUUUUAUAACAUGAGGAUCACCCAUGUCGGUGGGAGAAGGGCCGUACGGCG [salish99_ExNG02_R04_018] (Eterna round: R96, puzzle: Exclusion NG 2)				244 nM	129 nM	224 nM
UAUAUAUAGUAAGGAUAUGUAAUUAUUUGAUAAACAGAAGGUACUGACAUGAGGAUCACCCAUGUUUUAGUGUGGGCAUGUAGA [JMF's solution 42] (Eterna round: R96, puzzle: Exclusion NG 1)					72.7 nM	
GUCUGCACGCUGCGGUCCUACAUGAGGAUCACCCAUGUGGUCUGGUGGCGUGGGUCGCCGGACUUGGCUCGUCUUGA [salish99_S_TOV1_R5_045] (Eterna round: R97, puzzle: Sensor, turn-off variant 1)				16.5 nM		15.9 nM
GAUAAGGUAGGAUAUACGAAUAAAGAGGGUAGUAAUAAUACACAUGAGGAUCACCCAUGUAGAAGGACCAAUAG [Mat - Exclusion 2 - Mod of my Tesla design - D42] (puzzle: Exclusion 2)	41.2 nM	19.3 nM	17.9 nM			
AGUCCUGGAGUUAGGAUAUGGAGUAUCACUGCACUUCAGAAGGGACUUGAGGAUCACCCAAGUAGCCGUGAGGG [salish99_bmod_ex4_r4_004] (Eterna round: R97, puzzle: Brourd's mod of Exclusion 4)				74.3 nM		49.2 nM
UUGUUACAUGAGGAUCACCCAUGUGAGGAUAUGGUUCAGUACUGUCAUGUCACGUACUCCAGAAGGCACAUGUU [1st #31] (Eterna round: R97, puzzle: Exclusion 1)				363 nM		120 nM
ACAAGCUUUUUGCAUCAAGCAUUAAAGUCUGUGAUCGUAACAUGAGGAUCACCCAUGUAAGUUUUAUGACGUCUUAU [JR_SV3TOV2_Sub096] (puzzle: Sensor v3, turn-off variant 2)	24.8 nM	39.8 nM	25.3 nM			
CACCUGAAGACAGGAUAUCAUACAUGAGGAUCACCCAUGUAAUAAAUGAGAAUUUCGAAUGUAAUUGAGAAGGGUCAAUAAGGC [Ostricism 96 - Jieux - Exclusion NG 2] (Eterna round: R96, puzzle: Exclusion NG 2)				58.7 nM	31.3 nM	29.2 nM
CCUCUACAUGAGGAUCACCCAUGUGAGGAUAUCAAAGCCAGAACGGAUCUCUGGCCCAUGAGAAGGUGCAUGGA [EX1 A.2] (Eterna round: R97, puzzle: Exclusion 1)				119 nM		22.3 nM
CAAAGACCGGCAGGAUAUUGACCCAGAACAUGAGGAUCACCCAUGUCAACAAGGUUGGACCAGGGCGAGAAGGGCCACGCCAAA [Eternabot solution 22] (Eterna round: R96, puzzle: Exclusion NG 2)				12.3 nM	12.5 nM	22.1 nM
